Results from patent publication US20150344570A1 (published 2015).

T1: human FcγRIIb extracellular domain with C-terminal His tag (human, UniProt P31994 43-217)
T1 construct: extracellular domain; also called FcgRIIb; 2b; not shown: His tag attached to the C terminus
T1 sequence (looked up): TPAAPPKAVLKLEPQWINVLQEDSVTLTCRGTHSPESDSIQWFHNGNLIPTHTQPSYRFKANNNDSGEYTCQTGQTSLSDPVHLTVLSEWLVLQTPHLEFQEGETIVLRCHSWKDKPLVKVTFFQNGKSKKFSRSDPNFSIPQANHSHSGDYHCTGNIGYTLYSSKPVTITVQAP

B1: GpH7-A5/GpH7-B3 variant S337_10E/GpL16-k0 (He Ab) (antibody, human IgG1, kappa)
heavy 1: not shown
heavy 2: not shown
light: DIVMTQSPLSLPVTPGEPASISCQASESLVHSNRNTYLHWYLQKPGQSPQLLIYKVSNRFSGVPDRFSGSGSGTDFTLKISRVEAEDVGVYYCSQNTHVPPTFGQGTKVEIERTVAAPSVFIFPPSDEQLKSGTASVVCLLNNFYPREAKVQWKVDNALQSGNSQESVTEQDSKDSTYSLSSTLTLSKADYEKHKVYACEVTHQGLSSPVTKSFNRGEC
notes: Anti-glypican-3 IgG1; mutation only in the GpH7-B3-derived H chain; also called S337E heterodimerized antibody
B2: GpH7-A5/GpH7-B3 variant L328_14T/GpL16-k0 (He Ab) (antibody, human IgG1, kappa)
heavy 1: not shown
heavy 2: not shown
light: B1 light
notes: Anti-glypican-3 IgG1; mutation only in the GpH7-B3-derived H chain; also called L328T heterodimerized antibody
B3: GpH7-B3 variant S267_10E/GpL16-k0 (Ho Ab) (antibody, human IgG1, kappa)
heavy: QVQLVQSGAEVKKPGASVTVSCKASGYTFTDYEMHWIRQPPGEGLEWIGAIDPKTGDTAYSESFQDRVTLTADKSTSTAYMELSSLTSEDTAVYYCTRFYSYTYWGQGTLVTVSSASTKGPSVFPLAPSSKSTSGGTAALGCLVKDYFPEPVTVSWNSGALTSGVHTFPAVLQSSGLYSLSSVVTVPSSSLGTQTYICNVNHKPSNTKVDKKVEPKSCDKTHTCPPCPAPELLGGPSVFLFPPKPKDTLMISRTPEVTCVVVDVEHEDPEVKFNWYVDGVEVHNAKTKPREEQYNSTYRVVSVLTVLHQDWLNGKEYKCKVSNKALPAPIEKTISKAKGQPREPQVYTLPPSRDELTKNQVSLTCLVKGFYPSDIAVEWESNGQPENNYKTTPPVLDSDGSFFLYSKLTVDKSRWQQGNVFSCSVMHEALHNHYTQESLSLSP
light: B1 light
notes: Anti-glypican-3 IgG1; mutation in both H chains; also called S267E homodimerized antibody
B4: GpH7-A5/GpH7-B3 variant S267_14T/GpL16-k0 (He Ab) (antibody, human IgG1, kappa)
heavy 1: not shown
heavy 2: not shown
light: B1 light
notes: Anti-glypican-3 IgG1; mutation only in the GpH7-B3-derived H chain; also called S267T heterodimerized antibody
B5: GpH7-A5/GpH7-B3 variant L328_04F/GpL16-k0 (He Ab) (antibody, human IgG1, kappa)
heavy 1: not shown
heavy 2: not shown
light: B1 light
notes: Anti-glypican-3 IgG1; mutation only in the GpH7-B3-derived H chain; also called L328F heterodimerized antibody
B6: GpH7-B3 variant S239_01G/GpL16-k0 (Ho Ab) (antibody, human IgG1, kappa)
heavy: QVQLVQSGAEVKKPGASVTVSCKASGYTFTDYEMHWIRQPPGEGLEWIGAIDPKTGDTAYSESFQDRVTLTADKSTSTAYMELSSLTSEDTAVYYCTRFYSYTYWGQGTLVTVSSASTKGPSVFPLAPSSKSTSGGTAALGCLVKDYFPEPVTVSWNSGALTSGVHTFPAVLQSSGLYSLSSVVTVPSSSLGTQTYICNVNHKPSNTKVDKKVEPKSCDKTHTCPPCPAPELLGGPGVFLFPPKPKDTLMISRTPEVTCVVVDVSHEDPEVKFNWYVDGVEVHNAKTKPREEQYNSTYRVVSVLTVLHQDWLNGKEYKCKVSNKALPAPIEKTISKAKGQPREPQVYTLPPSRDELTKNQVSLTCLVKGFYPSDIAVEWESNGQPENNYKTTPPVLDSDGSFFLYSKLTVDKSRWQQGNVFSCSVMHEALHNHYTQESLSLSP
light: B1 light
notes: Anti-glypican-3 IgG1; mutation in both H chains; also called S239G homodimerized antibody
B7: GpH7-A5/GpH7-B3 variant S239_18N/GpL16-k0 (He Ab) (antibody, human IgG1, kappa)
heavy 1: not shown
heavy 2: not shown
light: B1 light
notes: Anti-glypican-3 IgG1; mutation only in the GpH7-B3-derived H chain; also called S239N heterodimerized antibody
B8: GpH7-A5/GpH7-B3 variant P271_08L/GpL16-k0 (He Ab) (antibody, human IgG1, kappa)
heavy 1: not shown
heavy 2: not shown
light: B1 light
notes: Anti-glypican-3 IgG1; mutation only in the GpH7-B3-derived H chain; also called P271L heterodimerized antibody
B9: GpH7-B3 variant S337_14T/GpL16-k0 (Ho Ab) (antibody, human IgG1, kappa)
heavy: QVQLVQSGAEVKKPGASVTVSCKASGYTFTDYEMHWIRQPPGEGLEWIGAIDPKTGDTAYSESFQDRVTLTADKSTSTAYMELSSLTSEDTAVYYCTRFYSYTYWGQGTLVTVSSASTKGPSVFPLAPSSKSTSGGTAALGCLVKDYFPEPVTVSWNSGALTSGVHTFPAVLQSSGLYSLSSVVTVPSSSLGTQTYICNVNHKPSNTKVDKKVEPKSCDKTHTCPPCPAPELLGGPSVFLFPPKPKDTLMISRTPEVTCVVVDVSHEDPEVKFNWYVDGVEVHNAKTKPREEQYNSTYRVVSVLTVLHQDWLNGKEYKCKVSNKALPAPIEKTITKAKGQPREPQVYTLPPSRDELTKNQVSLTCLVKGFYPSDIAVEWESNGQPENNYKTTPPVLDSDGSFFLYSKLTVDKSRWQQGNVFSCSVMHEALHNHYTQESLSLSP
light: B1 light
notes: Anti-glypican-3 IgG1; mutation in both H chains; also called S337T homodimerized antibody
B10: GpH7-A5/GpH7-B3 variant L328_19Q/GpL16-k0 (He Ab) (antibody, human IgG1, kappa)
heavy 1: not shown
heavy 2: not shown
light: B1 light
notes: Anti-glypican-3 IgG1; mutation only in the GpH7-B3-derived H chain; also called L328Q heterodimerized antibody
B11: GpH7-B3 variant S267_14T/GpL16-k0 (Ho Ab) (antibody, human IgG1, kappa)
heavy: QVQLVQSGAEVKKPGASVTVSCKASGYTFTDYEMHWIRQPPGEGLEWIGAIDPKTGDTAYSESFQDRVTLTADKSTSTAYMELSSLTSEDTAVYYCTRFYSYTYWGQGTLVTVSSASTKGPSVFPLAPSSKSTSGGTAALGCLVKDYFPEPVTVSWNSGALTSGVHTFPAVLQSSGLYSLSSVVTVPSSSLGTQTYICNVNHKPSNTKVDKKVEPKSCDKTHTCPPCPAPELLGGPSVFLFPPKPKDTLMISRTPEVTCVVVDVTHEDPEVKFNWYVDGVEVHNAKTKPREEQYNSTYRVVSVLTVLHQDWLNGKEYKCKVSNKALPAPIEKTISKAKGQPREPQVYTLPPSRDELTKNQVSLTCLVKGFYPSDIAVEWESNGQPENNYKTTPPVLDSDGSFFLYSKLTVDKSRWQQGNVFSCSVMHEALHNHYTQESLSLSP
light: B1 light
notes: Anti-glypican-3 IgG1; mutation in both H chains; also called S267T homodimerized antibody
B12: GpH7-A5/GpH7-B3 variant S239_01G/GpL16-k0 (He Ab) (antibody, human IgG1, kappa)
heavy 1: not shown
heavy 2: not shown
light: B1 light
notes: Anti-glypican-3 IgG1; mutation only in the GpH7-B3-derived H chain; also called S239G heterodimerized antibody
B13: GpH7-A5/GpH7-B3 variant P331_04F/GpL16-k0 (He Ab) (antibody, human IgG1, kappa)
heavy 1: not shown
heavy 2: not shown
light: B1 light
notes: Anti-glypican-3 IgG1; mutation only in the GpH7-B3-derived H chain; also called P331F heterodimerized antibody
B14: GpH7-B3 variant S239_18N/GpL16-k0 (Ho Ab) (antibody, human IgG1, kappa)
heavy: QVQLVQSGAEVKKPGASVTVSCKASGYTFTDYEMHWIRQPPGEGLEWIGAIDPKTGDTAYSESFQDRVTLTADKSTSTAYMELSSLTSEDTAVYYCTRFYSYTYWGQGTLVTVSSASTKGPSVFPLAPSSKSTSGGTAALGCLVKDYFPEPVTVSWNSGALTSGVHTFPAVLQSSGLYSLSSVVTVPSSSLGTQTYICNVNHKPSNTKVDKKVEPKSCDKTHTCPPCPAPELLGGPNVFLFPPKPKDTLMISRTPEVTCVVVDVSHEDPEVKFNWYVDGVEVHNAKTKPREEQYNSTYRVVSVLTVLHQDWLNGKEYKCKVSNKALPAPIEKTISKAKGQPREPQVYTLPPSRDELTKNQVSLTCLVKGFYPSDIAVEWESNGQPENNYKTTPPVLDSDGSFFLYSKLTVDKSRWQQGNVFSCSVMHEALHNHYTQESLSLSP
light: B1 light
notes: Anti-glypican-3 IgG1; mutation in both H chains; also called S239N homodimerized antibody
B15: GpH7-B3 variant S239_09D/GpL16-k0 (Ho Ab) (antibody, human IgG1, kappa)
heavy: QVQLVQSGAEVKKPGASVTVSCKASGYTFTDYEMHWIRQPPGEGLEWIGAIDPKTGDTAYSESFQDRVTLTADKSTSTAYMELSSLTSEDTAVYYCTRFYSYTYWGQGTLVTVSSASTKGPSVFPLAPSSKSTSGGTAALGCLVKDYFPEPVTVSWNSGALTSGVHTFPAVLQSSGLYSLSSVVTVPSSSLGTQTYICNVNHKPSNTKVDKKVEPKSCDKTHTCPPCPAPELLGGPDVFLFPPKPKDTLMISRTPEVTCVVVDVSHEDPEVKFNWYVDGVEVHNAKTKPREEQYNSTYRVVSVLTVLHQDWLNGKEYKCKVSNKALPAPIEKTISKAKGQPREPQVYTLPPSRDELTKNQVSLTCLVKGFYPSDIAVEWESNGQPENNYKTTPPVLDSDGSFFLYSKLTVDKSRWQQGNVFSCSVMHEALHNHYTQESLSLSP
light: B1 light
notes: Anti-glypican-3 IgG1; mutation in both H chains; also called S239D homodimerized antibody
B16: GpH7-A5/GpH7-B3 variant K334_18N/GpL16-k0 (He Ab) (antibody, human IgG1, kappa)
heavy 1: not shown
heavy 2: not shown
light: B1 light
notes: Anti-glypican-3 IgG1; mutation only in the GpH7-B3-derived H chain; also called K334N heterodimerized antibody
B17: GpH7-A5/GpH7-B3 variant S267_02A/GpL16-k0 (He Ab) (antibody, human IgG1, kappa)
heavy 1: not shown
heavy 2: not shown
light: B1 light
notes: Anti-glypican-3 IgG1; mutation only in the GpH7-B3-derived H chain; also called S267A heterodimerized antibody
B18: GpH7-A5/GpH7-B3 variant S337_14T/GpL16-k0 (He Ab) (antibody, human IgG1, kappa)
heavy 1: not shown
heavy 2: not shown
light: B1 light
notes: Anti-glypican-3 IgG1; mutation only in the GpH7-B3-derived H chain; also called S337T heterodimerized antibody
B19: GpH7-A5/GpH7-B3 variant P238_08L/GpL16-k0 (He Ab) (antibody, human IgG1, kappa)
heavy 1: not shown
heavy 2: not shown
light: B1 light
notes: Anti-glypican-3 IgG1; mutation only in the GpH7-B3-derived H chain; also called P238L heterodimerized antibody
B20: GpH7-A5/GpH7-B3 variant P271_01G/GpL16-k0 (He Ab) (antibody, human IgG1, kappa)
heavy 1: not shown
heavy 2: not shown
light: B1 light
notes: Anti-glypican-3 IgG1; mutation only in the GpH7-B3-derived H chain; also called P271G heterodimerized antibody
B21: GpH7-A5/GpH7-B3 variant S267_03V/GpL16-k0 (He Ab) (antibody, human IgG1, kappa)
heavy 1: not shown
heavy 2: not shown
light: B1 light
notes: Anti-glypican-3 IgG1; mutation only in the GpH7-B3-derived H chain; also called S267V heterodimerized antibody
B22: GpH7-A5/GpH7-B3 variant S267_08L/GpL16-k0 (He Ab) (antibody, human IgG1, kappa)
heavy 1: not shown
heavy 2: not shown
light: B1 light
notes: Anti-glypican-3 IgG1; mutation only in the GpH7-B3-derived H chain; also called S267L heterodimerized antibody
B23: GpH7-B3 variant S267_08L/GpL16-k0 (Ho Ab) (antibody, human IgG1, kappa)
heavy: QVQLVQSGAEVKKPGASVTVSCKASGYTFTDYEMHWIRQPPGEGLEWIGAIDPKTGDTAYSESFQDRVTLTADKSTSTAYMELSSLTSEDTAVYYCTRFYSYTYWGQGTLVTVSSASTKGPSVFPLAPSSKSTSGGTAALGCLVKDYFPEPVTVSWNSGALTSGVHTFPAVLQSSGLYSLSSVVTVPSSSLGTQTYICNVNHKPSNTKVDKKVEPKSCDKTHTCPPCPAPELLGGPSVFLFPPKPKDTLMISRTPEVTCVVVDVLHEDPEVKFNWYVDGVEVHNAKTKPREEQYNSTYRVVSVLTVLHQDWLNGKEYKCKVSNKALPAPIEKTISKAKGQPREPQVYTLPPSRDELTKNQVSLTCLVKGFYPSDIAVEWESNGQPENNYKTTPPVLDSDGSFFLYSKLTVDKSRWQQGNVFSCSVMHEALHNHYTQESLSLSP
light: B1 light
notes: Anti-glypican-3 IgG1; mutation in both H chains; also called S267L homodimerized antibody
B24: GpH7-B3 variant T335_09D/GpL16-k0 (Ho Ab) (antibody, human IgG1, kappa)
heavy: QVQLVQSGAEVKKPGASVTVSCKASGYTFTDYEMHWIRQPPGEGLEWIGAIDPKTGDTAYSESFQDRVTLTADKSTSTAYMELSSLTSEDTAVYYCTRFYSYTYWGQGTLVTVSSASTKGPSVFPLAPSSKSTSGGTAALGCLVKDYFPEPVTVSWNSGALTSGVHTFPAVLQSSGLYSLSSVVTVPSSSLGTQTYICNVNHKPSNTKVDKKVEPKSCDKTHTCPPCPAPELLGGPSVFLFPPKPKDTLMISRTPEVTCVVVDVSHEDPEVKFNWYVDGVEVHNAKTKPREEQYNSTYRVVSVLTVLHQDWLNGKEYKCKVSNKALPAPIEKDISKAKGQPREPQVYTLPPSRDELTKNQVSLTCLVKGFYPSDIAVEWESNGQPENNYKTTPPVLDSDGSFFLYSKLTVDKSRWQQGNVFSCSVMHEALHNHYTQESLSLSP
light: B1 light
notes: Anti-glypican-3 IgG1; mutation in both H chains; also called T335D homodimerized antibody
B25: GpH7-A5/GpH7-B3 variant K334_15Y/GpL16-k0 (He Ab) (antibody, human IgG1, kappa)
heavy 1: not shown
heavy 2: not shown
light: B1 light
notes: Anti-glypican-3 IgG1; mutation only in the GpH7-B3-derived H chain; also called K334Y heterodimerized antibody
B26: GpH7-B3 variant T335_04F/GpL16-k0 (Ho Ab) (antibody, human IgG1, kappa)
heavy: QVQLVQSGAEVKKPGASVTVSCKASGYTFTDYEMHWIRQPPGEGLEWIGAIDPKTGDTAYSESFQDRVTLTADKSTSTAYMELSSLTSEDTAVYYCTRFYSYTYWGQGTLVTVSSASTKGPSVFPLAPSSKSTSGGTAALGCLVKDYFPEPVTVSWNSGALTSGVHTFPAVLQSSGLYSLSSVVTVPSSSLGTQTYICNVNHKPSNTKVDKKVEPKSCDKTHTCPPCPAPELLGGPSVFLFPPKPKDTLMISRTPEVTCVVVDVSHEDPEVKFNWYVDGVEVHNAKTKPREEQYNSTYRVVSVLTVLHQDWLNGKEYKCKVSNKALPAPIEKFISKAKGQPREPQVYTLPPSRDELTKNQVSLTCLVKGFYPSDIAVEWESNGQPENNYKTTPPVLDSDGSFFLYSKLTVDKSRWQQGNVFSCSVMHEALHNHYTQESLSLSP
light: B1 light
notes: Anti-glypican-3 IgG1; mutation in both H chains; also called T335F homodimerized antibody
B27: GpH7-A5/GpH7-B3 variant S337_09D/GpL16-k0 (He Ab) (antibody, human IgG1, kappa)
heavy 1: not shown
heavy 2: not shown
light: B1 light
notes: Anti-glypican-3 IgG1; mutation only in the GpH7-B3-derived H chain; also called S337D heterodimerized antibody
B28: GpH7-A5/GpH7-B3 variant K334_19Q/GpL16-k0 (He Ab) (antibody, human IgG1, kappa)
heavy 1: not shown
heavy 2: not shown
light: B1 light
notes: Anti-glypican-3 IgG1; mutation only in the GpH7-B3-derived H chain; also called K334Q heterodimerized antibody

Target: T1, human FcγRIIb extracellular domain with …
Test: SPR (Biacore T100), antibody captured on antigen peptide chip, FcγRIIb as analyte; relative binding
Method: Analysis of interaction between objective antibody and the FcγR was carried out using Biacore T100 (GE Healthcare). HBS-EP+ (GE Healthcare) was used as the running buffer, and the measurement temperature was set to 25° C. Chips produced by immobilizing the antigen peptide by the amine coupling method to a Series S Sencor Chip CM5 (GE Healthcare), or alternatively, chips produced by allowing preliminarily biotinylated antigen peptides to interact with and immobilize onto a Series S Sensor Chip SA (certified) (GE Healthcare) were used. Antibodies of interest were captured onto an antigen peptide-immobilized chip, and allowed to interact to each FcγR diluted with running buffer. To regenerate and repeatedly use the chip, the antibodies captured on the chip were washed off by reacting 10 mM glycine-HCl, pH 1.5.

Row | Binder | He/Con_2b | Ho/Con_2b
1 | B1 | 107 % of control GpH7-A5/GpH7-B3/GpL16-k0 (=100) | –
2 | B2 | 141 % of control GpH7-A5/GpH7-B3/GpL16-k0 (=100) | –
3 | B3 | – | 396 % of control GpH7-B3/GpL16-k0 (=100)
4 | B4 | 104 % of control GpH7-A5/GpH7-B3/GpL16-k0 (=100) | –
5 | B5 | 219 % of control GpH7-A5/GpH7-B3/GpL16-k0 (=100) | –
6 | B6 | – | 174 % of control GpH7-B3/GpL16-k0 (=100)
7 | B7 | 119 % of control GpH7-A5/GpH7-B3/GpL16-k0 (=100) | –
8 | B8 | 103 % of control GpH7-A5/GpH7-B3/GpL16-k0 (=100) | –
9 | B9 | – | 110 % of control GpH7-B3/GpL16-k0 (=100)
10 | B10 | 105 % of control GpH7-A5/GpH7-B3/GpL16-k0 (=100) | –
11 | B11 | – | 106 % of control GpH7-B3/GpL16-k0 (=100)
12 | B12 | 144 % of control GpH7-A5/GpH7-B3/GpL16-k0 (=100) | –
13 | B13 | 110 % of control GpH7-A5/GpH7-B3/GpL16-k0 (=100) | –
14 | B14 | – | 125 % of control GpH7-B3/GpL16-k0 (=100)
15 | B15 | – | 224 % of control GpH7-B3/GpL16-k0 (=100)
16 | B16 | 115 % of control GpH7-A5/GpH7-B3/GpL16-k0 (=100) | –
17 | B17 | 243 % of control GpH7-A5/GpH7-B3/GpL16-k0 (=100) | –
18 | B18 | 105 % of control GpH7-A5/GpH7-B3/GpL16-k0 (=100) | –
19 | B19 | 204 % of control GpH7-A5/GpH7-B3/GpL16-k0 (=100) | –
20 | B20 | 193 % of control GpH7-A5/GpH7-B3/GpL16-k0 (=100) | –
21 | B21 | 192 % of control GpH7-A5/GpH7-B3/GpL16-k0 (=100) | –
22 | B22 | 109 % of control GpH7-A5/GpH7-B3/GpL16-k0 (=100) | –
23 | B23 | – | 109 % of control GpH7-B3/GpL16-k0 (=100)
24 | B24 | – | 116 % of control GpH7-B3/GpL16-k0 (=100)
25 | B25 | 109 % of control GpH7-A5/GpH7-B3/GpL16-k0 (=100) | –
26 | B26 | – | 107 % of control GpH7-B3/GpL16-k0 (=100)
27 | B27 | 114 % of control GpH7-A5/GpH7-B3/GpL16-k0 (=100) | –
28 | B28 | 109 % of control GpH7-A5/GpH7-B3/GpL16-k0 (=100) | –
